In paper PMC7717961, “O-GlcNAcylation Suppresses the Ion Current IClswell by Preventing the Binding of the Protein ICln to α-Integrin” (Frontiers in Cell and Developmental Biology, 2020):

Legend:
[1] = patch clamp, IClswell in wild-type ICln-transfected cells; details: control: vehicle (0.1% DMSO plus 5 mM D-glucose)
[2] = molecular target: T1, integrin αIIbshort-EYFP (amino acids 987-1039 of the human integrin αIIb chain fused to EYFP) (human, UniProt P08514-1 987-1039); experiment: FRET or BRET; acceptor photobleaching FRET in fixed NIH/3T3 cells transfected for 48 h; donor ECFP-ICln, acceptor αIIbshort-EYFP; FRET efficiency in three-four plasma membrane ROIs of each cell; O-GlcNAcylation left unmodified, increased with 100 μM PUGNAc plus 5 mM glucosamine for 1 h, or reduced by co-transfection of OGA-L; details: partners not purified
T1 construct: human integrin αIIb chain, amino acids 987-1039 of NP_000410.2 (integrin αIIbshort); also called αIIbs-EYFP; αIIb integrin; source: NIH/3T3, transfected for 48 h, in fixed cells; not shown: EYFP, C-terminal, kept
T1 sequence (P08514 987-1039): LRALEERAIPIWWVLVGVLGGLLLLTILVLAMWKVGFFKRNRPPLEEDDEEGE

| Binder | other: channel current, other: % variation of current at +100 mV [1] | FRET efficiency relative to wild-type ICln [2] [fold] |
| --- | --- | --- |
| ICln: 100 μM PUGNAc plus 5 mM glucosamine (protein) parent chain: MSFLKSFPPPGPAEGLLRQQPDTEAVLNGKGLGTGTLYIAESRLSWLDGSGLGFSLEYPTISLHALSRDRSDCLGEHLYVMVNAKFEEESKEPVADEEEEDSDDDVEPITEFRFVPSDKSALEAMFTAMCECQALHPDPEDEDSDDYDGEEYDVEAHEQGQGDIPTFYTYEEGLSHLTAEGQATLERLEGMLSQSVSSQYNMAGVRTEDSIRDYEDGMEVDTTPTVAGQFEDADVDH | decreases |  |
| ECFP-ICln Ser67Ala (natural protein, UniProt P54105 1-237, looked up, ICln with Ser67Ala, made by site-directed mutagenesis of the vector with the wild-type ICln cDNA; also called Ser67Ala ICln; source: NIH/3T3, transfected for 48 h, in fixed cells; not shown: ECFP, N-terminal, kept) MSFLKSFPPPGPAEGLLRQQPDTEAVLNGKGLGTGTLYIAESRLSWLDGSGLGFSLEYPTISLHALARDRSDCLGEHLYVMVNAKFEEESKEPVADEEEEDSDDDVEPITEFRFVPSDKSALEAMFTAMCECQALHPDPEDEDSDDYDGEEYDVEAHEQGQGDIPTFYTYEEGLSHLTAEGQATLERLEGMLSQSVSSQYNMAGVRTEDSIRDYEDGMEVDTTPTVAGQFEDADVDH |  | ~3 |
